These results are taken from US20210188980A1 (SHANGHAI EPIMAB BIOTHERAPEUTICS, published 2021).

The target of experiment [1] is T1, human LAG-3 ECD/Fc fusion protein (human).
T1 construct: also called HuLAG-3 ECD/Fc
The experiment is described as follows: SPR Biacore, HuLAG-3 ECD/Fc on chip, Ab analyte. On the technique in general: In SPR one partner is held on a chip, and binding of the other changes the refractive index at the surface.

Experiment [2] has as its target T1, human LAG-3 ECD/Fc fusion protein. The experiment is described as follows: SPR Biacore, HuPD-1 ECD/Fc and HuLAG-3 ECD/Fc both on chip, Ab analyte.
Experiment [3] concerns the target T2, human LAG-3 expressed on cells (human, UniProt P18627 23-525).
T2 sequence (looked up): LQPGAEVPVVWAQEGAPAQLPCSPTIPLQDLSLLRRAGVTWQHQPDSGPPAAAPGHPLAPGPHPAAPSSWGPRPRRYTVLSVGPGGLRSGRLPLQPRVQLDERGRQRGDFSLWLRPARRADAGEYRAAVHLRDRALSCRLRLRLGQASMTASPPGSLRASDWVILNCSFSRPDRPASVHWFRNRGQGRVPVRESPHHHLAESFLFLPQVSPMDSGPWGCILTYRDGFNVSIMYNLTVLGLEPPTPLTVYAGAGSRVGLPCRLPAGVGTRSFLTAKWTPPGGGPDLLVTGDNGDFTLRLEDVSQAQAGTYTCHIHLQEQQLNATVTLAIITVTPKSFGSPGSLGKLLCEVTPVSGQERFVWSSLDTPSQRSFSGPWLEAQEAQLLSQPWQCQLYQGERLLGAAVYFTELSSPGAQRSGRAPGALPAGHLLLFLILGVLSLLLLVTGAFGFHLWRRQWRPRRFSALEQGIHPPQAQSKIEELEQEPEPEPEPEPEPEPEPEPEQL
The experiment is described as follows: cell-based or functional assay.

Experiment [4] concerns the target human PD-1 expressed on cells (human, UniProt Q15116 25-288). The experiment is described as follows: cell-based or functional assay.

Sequence of human PD-1 expressed on cells (Q15116 25-288): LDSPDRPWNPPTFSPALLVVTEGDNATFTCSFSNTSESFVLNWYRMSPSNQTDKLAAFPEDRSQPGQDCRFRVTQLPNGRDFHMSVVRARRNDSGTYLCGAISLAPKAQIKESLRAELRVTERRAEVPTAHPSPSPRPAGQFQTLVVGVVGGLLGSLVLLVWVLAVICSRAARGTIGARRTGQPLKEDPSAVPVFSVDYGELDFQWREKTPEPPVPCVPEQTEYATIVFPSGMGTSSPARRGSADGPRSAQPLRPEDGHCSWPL

B1: mAb746c (antibody, V domains shown)
VH: EVQLQQSGAELVRPGASVKLSCTASDFNIKDDYMHWVKQRPEQGLDWIGWIVPENGNTEYASKFQGKATITADTSSNTAYLQLSSLTSEDTAVYYCTVYGDYWGQGTTLTVSS
VL: DIQMTQSPSSLSASLGERVSLNCRASQEISGYLSWLQQKSDGTIKRLIYAASTLDSGVPKRFSGSRSGSDYSLTISSLESEDFADYYCLQYASYPLTFGAGTKLELK
As to B1, in experiment [1], the Kd (commonly the free concentration of one partner at which half of the binding sites on the other are occupied at equilibrium, for simple one-to-one binding) turned out to be 32.5 nM; the koff (as a rule, a measure of how fast the partners let go of each other) was 0.000181 s⁻¹; the kon (as a rule, a measure of how fast the partners come together) was found to be 5580 M⁻¹ s⁻¹. In experiment [2], binding was characterised by a dissociation constant (Kd) of 16.2 nM, the koff stood at 0.000154 s⁻¹ and the kon worked out at 9510 M⁻¹ s⁻¹.

B2: FIT107-1-2a (bispecific antibody, human IgG1, kappa, L234A L235A)
chain 1: not shown
chain 2: EVKLVESGGGLVKPGGSLKLSCAASGFTFSFYTMSWVRQTPEKRLEWVATISGGGRDTYYPDSVKGRFTISRDNAKNTLYLHMSSLRSEDTALYYCAGQGGNYLFAYWGQGTLVTVSAASTKGPSVFPLAPSSKSTSGGTAALGCLVKDYFPEPVTVSWNSGALTSGVHTFPAVLQSSGLYSLSSVVTVPSSSLGTQTYICNVNHKPSNTKVDKKVEPKSC
chain 3: DIQMTQSPSSLSASLGERVSLNCRASQEISGYLSWLQQKSDGTIKRLIYAASTLDSGVPKRFSGSRSGSDYSLTISSLESEDFADYYCLQYASYPLTFGAGTKLELKRTVAAPSVFIFPPSDEQLKSGTASVVCLLNNFYPREAKVQWKVDNALQSGNSQESVTEQDSKDSTYSLSSTLTLSKADYEKHKVYACEVTHQGLSSPVTKSFNRGEC
Consider B2, for which the “MLR, IFN-γ production, EC50” value in experiment [3] and in experiment [4] was 0.508 nM throughout.
